Target: SARS-CoV nucleocapsid (N) protein, full length, in the pM vector (pM-N) (SARS-CoV, UniProt P59595 1-422)
Experiment: two-hybrid

SARS-CoV nucleocapsid (N) protein, full length, in the pM vector (pM-N), sequence (P59595 whole entry): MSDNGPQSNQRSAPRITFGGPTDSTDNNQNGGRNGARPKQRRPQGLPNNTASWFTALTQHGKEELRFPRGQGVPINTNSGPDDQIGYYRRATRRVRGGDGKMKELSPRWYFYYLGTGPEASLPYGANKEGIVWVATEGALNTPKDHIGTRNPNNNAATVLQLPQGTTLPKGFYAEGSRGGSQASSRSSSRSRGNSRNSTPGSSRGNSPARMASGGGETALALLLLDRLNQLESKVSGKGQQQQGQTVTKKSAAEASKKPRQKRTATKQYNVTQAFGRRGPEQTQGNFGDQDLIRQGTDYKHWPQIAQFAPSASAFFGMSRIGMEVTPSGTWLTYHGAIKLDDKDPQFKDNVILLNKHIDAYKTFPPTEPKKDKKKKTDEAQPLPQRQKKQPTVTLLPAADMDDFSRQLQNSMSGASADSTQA

B1: SARS-CoV membrane (M) protein in the pVP16 vector (pVP16-M) (natural protein)
chain: MADNGTITVEELKQLLEQWNLVIGFLFLAWIMLLQFAYSNRNRFLYIIKLVFLWLLWPVTLACFVLAAVYRINWVTGGIAIAMACIVGLMWLSYFVASFRLFARTRSMWSFNPETNILLNVPLRGTIVTRPLMESELVIGAVIIRGHLRMAGHSLGRCDIKDLPKEITVATSRTLSYYKLGASQRVGTDSGFAAYNRYRIGNYKLNTDHAGSNDNIALLVQ
With B1 the “fold chemiluminescence (SEAP) over controls” value was > 5 fold.
